We go through three molecules from paper PMC11343034, “CDCA7 is an evolutionarily conserved hemimethylated DNA sensor in eukaryotes”.

One data set deals with T1, C. gigas CDCA7 homolog (Crassostrea gigas, UniProt A0A8W8IWK5 1-264).
T1 sequence: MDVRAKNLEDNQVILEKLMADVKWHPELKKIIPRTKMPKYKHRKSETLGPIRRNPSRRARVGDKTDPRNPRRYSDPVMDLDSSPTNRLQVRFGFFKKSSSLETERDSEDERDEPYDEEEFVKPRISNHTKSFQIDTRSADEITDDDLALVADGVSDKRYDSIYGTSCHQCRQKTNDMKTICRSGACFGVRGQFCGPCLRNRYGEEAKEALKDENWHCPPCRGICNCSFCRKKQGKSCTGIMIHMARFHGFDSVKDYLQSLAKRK
Briefly: pull-down; boiled extract; Oligo EMSA: 20 mM Tris-HCl pH 7.5, 150 mM NaCl, 1 mM DTT, 0.05% NP-40, 10% glycerol, 4 C, 0.5 uM DNA; nucleosome EMSA: same with 50 mM NaCl, 0.1 uM nucleosome. The conditions noted are these: protein: ivt; tags: 35S-Met; label: 5' biotin on strand 2; blunt.

The target of data set [1] is T2, A. thaliana CDCA7 homolog (Arabidopsis thaliana, UniProt Q0WPT6 1-417).
T2 sequence: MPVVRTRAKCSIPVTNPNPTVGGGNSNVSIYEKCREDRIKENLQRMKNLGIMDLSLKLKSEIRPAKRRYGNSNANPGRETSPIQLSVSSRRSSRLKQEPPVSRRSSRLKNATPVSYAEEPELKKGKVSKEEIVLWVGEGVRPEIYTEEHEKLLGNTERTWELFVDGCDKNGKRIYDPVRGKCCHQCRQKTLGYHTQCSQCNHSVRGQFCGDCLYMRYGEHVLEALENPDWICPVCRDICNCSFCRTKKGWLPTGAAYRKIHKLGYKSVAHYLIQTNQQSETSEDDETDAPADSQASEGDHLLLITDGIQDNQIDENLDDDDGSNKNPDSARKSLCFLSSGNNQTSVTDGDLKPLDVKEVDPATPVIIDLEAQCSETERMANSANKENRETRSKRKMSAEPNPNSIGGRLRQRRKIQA
The description is as above. To be noted: protein: ivt; tags: 35S-Met; label: 5' biotin on strand 2; blunt.

Data set [2] concerns the target T3, N. vectensis CDCA7 homolog (Nematostella vectensis, UniProt A7SQU1 1-157).
T3 sequence: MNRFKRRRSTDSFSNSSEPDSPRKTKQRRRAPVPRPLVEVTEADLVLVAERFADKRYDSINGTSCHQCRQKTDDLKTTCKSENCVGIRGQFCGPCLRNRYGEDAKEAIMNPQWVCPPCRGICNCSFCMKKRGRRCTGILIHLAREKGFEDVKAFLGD
The data set is described as above. To be noted: protein: ivt; tags: 35S-Met; label: 5' biotin on strand 2; blunt.

Another data set has as its target T4, CDCA7L 322-454 (Homo sapiens, UniProt Q96GN5 322-454).
T4 sequence: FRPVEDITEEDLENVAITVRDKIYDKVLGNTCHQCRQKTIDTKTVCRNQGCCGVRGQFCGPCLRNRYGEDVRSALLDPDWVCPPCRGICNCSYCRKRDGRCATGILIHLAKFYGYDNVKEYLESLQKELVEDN
In words: pull-down; egg extract; Oligo EMSA: 20 mM Tris-HCl pH 7.5, 150 mM NaCl, 1 mM DTT, 0.05% NP-40, 10% glycerol, 4 C, 0.5 uM DNA; nucleosome EMSA: same with 50 mM NaCl, 0.1 uM nucleosome. The conditions noted are these: protein: ivt; tags: 35S-Met; label: 5' biotin on strand 2; blunt.

The target of another data set is T5, hCDCA7 264-371 C339S (Homo sapiens, UniProt Q9BWT1 264-371, C339S).
T5 sequence: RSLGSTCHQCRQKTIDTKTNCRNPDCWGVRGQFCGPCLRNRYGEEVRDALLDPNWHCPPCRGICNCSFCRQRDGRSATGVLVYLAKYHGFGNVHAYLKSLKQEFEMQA
Briefly: EMSA; free DNA preferred over nucleosome; Oligo EMSA: 20 mM Tris-HCl pH 7.5, 150 mM NaCl, 1 mM DTT, 0.05% NP-40, 10% glycerol, 4 C, 0.5 uM DNA; nucleosome EMSA: same with 50 mM NaCl, 0.1 uM nucleosome. To be noted: protein: recombinant; tags: GST-SUMO removed; blunt.

B1: 54-bp hemi-Me (F) (dsDNA)
DNA 1: GCGGGTGATGGACCCTATACGCGGCCGCCCTGGAGAATCCCGGTGCCGCGGCCG
DNA 2: CGGCCGCGGCACCGGGATTCTCCAGGGCGGCCGCGTATAGGGTCCATCACCCGC
modifications: 5mC at 41,47,49,53 of strand 1
Turning to B1, the binding result (with C. gigas CDCA7 homolog; in data set [1]; in data set [2]; with CDCA7L 322-454) was “binds” each time.

B2: -62W free DNA (dsDNA)
DNA 1: ATCAGAATCCCGGTGCCGAGGCCGCTCAATTGGTCGTAGACAGCTCTAGCACCGCTTAAACGCACGTACGCGCTGTCCCCCGCGTTTTAACCGCCAAGGGGATTACTCCCTAGTCTCCAGGCACGTGTCAGATATATACATCGAT
DNA 2: ATCGATGTATATATCTGACACGTGCCTGGAGACTAGGGAGTAATCCCCTTGGCGGTTAAAACGCGGGGGACAGCGCGTACGTGCGTTTAAGCGGTGCTAGAGCTGTCTACGACCAATTGAGCGGCCTCGGCACCGGGATTCTGAT
modifications: 5mC at 11 of strand 1
Consider B2, for which, in the data set with hCDCA7 264-371 C339S, the binding result is on record as “binds”.

B3: -64C free DNA (dsDNA)
DNA 1: ATCAGAATCCCGGTGCCGAGGCCGCTCAATTGGTCGTAGACAGCTCTAGCACCGCTTAAACGCACGTACGCGCTGTCCCCCGCGTTTTAACCGCCAAGGGGATTACTCCCTAGTCTCCAGGCACGTGTCAGATATCGACATCGAT
DNA 2: ATCGATGTCGATATCTGACACGTGCCTGGAGACTAGGGAGTAATCCCCTTGGCGGTTAAAACGCGGGGGACAGCGCGTACGTGCGTTTAAGCGGTGCTAGAGCTGTCTACGACCAATTGAGCGGCCTCGGCACCGGGATTCTGAT
modifications: 5mC at 9 of strand 2
Turning to B3, the binding result in the data set with hCDCA7 264-371 C339S is “binds”.
